For test [1], the target named is T1, recombinant biotinylated CD38 protein (Homo sapiens (Human), UniProt P28907 43-300, biotinylated (site not stated)).
T1 construct: also called biotinylated CD38 antigen; biotin-labelled recombinant CD38 protein
Nature of the test: BLI (Octet), biotinylated recombinant CD38 on streptavidin sensors, seven nanobody concentrations, 1:1 model. A general note: Biolayer interferometry detects binding as a change in optical thickness at a sensor tip.

Test [2] has as its target T2, human CD38 receptor expressed on RPMI-8226 multiple myeloma cells and other CD38+ cell lines (human, UniProt P28907 1-300).
T2 construct: Endogenous CD38 on human cell lines; also called cyclic ADP-Ribose Hydrolase 1; ADPRC1
Put plainly: saturation binding of radiolabelled nanobody on CD38+ RPMI-8226 cells, 1 hour at 4 C.

A word on the Kd: it is the concentration at which binding is half-saturated.

B1: anti-CD38 nanobody 2F8 (Nb2F8) with C-terminal hexahistidine tag (VHH)
VHH: QVQLVESGGGSVQAGGSLRLSCAASGYTDSDYIMAWFRQAPGKEREVVATIYIGGTYIHYADSVKGRFTISRDNAENTVYLQMNNLKPEDTAMYYCAATKWRPFISTRAAEYNYWGQGTLVTVSS
notes: also called sdAb 2F8
B1: the Kd in test [1] was found to be 0.7 nM.

B2: 111In-DTPA-Nb2F8 (untagged Nb2F8 conjugated to CHX-A''-DTPA and labelled with Indium-111) (VHH)
VHH: QVQLVESGGGSVQAGGSLRLSCAASGYTDSDYIMAWFRQAPGKEREVVATIYIGGTYIHYADSVKGRFTISRDNAENTVYLQMNNLKPEDTAMYYCAATKWRPFISTRAAEYNYWGQGTLVTVSS
modifications: CHX-A''-DTPA conjugated to the free epsilon-amino groups of lysines; chelated Indium-111
notes: also called m In-DTPA-Nb2F8; ul In-DTPA-Nb2F8
B2: binding in test [2] was characterised by a dissociation constant (Kd) of 16.7 nM.

The record behind these values is patent WO2021229104A1 (dated 2021).
